T1: human PACAP27 (human, C-terminal leucine is amidated; 125I-labelled in Example 10)
T1 peptide: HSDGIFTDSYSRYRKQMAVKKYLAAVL

T2: human VIP (human)
T2 construct: also called Vasoactive Intestinal Peptide
T2 peptide: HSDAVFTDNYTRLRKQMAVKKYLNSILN

T3: human PACAP38 (human, not fully specified; C-terminal lysine is amidated; N-terminal or C-terminal biotin in the HTRF and PC-12 cell binding assays)
T3 construct: synthetic peptide, bought; also called huPACAP (1-38)
T3 peptide: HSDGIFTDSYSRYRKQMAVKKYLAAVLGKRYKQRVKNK


Legend:
human PACAP27 [1] = target: T1, human PACAP27; test: SPR, Ab immobilised
Method: [The procedure below names another target; the source says it served here with some conditions changed.] (§1) Binding affinities of monoclonal antibodies for human PACAP were estimated using SPR on the PROTEON™ XPR36 (Bio-Rad, Hercules, Calif.). Antibody was immobilized to the surface of general amine coupling (“GLC” or “GLM”) Chips (Bio-Rad, Hercules, Calif.). A dilution series of human PACAP38 (SEQ ID NO: 1241) prepared in 1×PBST Buffer (4.3 mM Na Phosphate, 1.4 mM K Phosphate, 135 mM NaCl, 2.7 mM KCl 0.05% Polysorbate-20) purchased from Teknova (Cat# P1192, Teknova, Hollister, Calif.) and supplemented with 0.25 M arginine (from J.T. BAKER®), 0.2 mg/ml BSA (Jackson Immuno Research Labs, West Grove, Pa.), and 0.005% sodium azide (VWR International, Radnor, Pa.) with the pH adjusted to 7 was used to query the antibodies. Antigen (ranging from 1.23 nM to 100 nM) was typically run sequentially with association times of 2-4 minutes and dissociation times of 3-120 minutes grouped with the PROTEON™ Manager Software (v3.1.0.6 (Bio-Rad, Hercules, Calif.)) and fitted using a 1:1 Langmuir binding model. Surfaces were regenerated between analyte queries using 0.85% Phosphoric Acid.

human VIP = target: T2, human VIP; test: SPR, Ab immobilised
Method: [The procedure below names another target; the source says it served here with some conditions changed.] as §1

human PACAP38 [2] = target: T3, human PACAP38; test: SPR, Ab immobilised
Method: as §1

human PACAP38 [3] = target: T3, human PACAP38; test: inhibition of 30 nM biotin-PACAP38 binding to PC-12 cells, TRF
Method: (§2) To identify antibodies that block PACAP38 binding to PAC1-R-expressing cells, adherent PC-12 cells (ATCC, Manassas, Va.) expressing PAC1-R were used in a Europium-based PAC1-R expressing cells binding assay.
(§3) Antibody solutions were incubated with N-terminal biotinylated PACAP38 at 10× the final concentration (100 nM or 30 nM) for 1 hr, then added to PC-12 cells that were plated 24 hrs. prior in black clear bottom 96 well plates (COSTAR™, Corning Incorporated, Corning, N.Y.) and further incubated for 1 hr at room temperature. After three washes, the cells were incubated with 20 μl Europium-labeled streptavidin (PerkinElmer, Waltham, Mass.) for 1 hr at room temperature. Cells were washed three times, then 20 μl DELFIA® Enhancement solution (PerkinElmer, Waltham, Mass.) was added to each well and incubated for 15 minutes with gentle shaking. Plates were read (Time Resolved Fluorescence (“TRF”)) on SPECTRAMAX® (Molecular Devices, Sunnyvale, Calif.) plate reader.
(§4) FIGS. 14A-14BB are representative of the inhibition curves obtained by this method (results are shown for Ab1, Ab2, Ab3, Ab4, Ab5, Ab6, Ab7, Ab8, Ab9, Ab10, Ab11, Ab12, Ab13, Ab14, Ab15, Ab16, Ab17, Ab18, Ab19, Ab1.H, Ab10.H, Ab22, Ab23, Ab3.H, Ab4.H, Ab5.H, Ab9.H, and Ab12.H, respectively) wherein the PAC1-R expressing cells were PC-12 cells.

human PACAP38 [4] = target: T3, human PACAP38; test: cell-based or functional assay
human PACAP38 [5] = target: T3, human PACAP38; test: cell-based or functional assay
human PACAP27 [6] = target: T1, human PACAP27; test: cell-based or functional assay
human PACAP38 [7] = target: T3, human PACAP38; test: cell-based or functional assay
human PACAP38 [8] = target: T3, human PACAP38; test: HTRF binding, biotin-PACAP38
Method: In parallel, 10 μl of an antibody dilution series (highest final concentration of 100 nM) were incubated with 10 μl of N-terminal or C-terminal biotinylated PACAP38 (35 nM final) alone, or in combination with either PACAP27 (350 nM final) or VIP (350 nM final), i.e., 10× PACAP27 or 10×VIP, respectively, in a HTRF plate. 20 μl of Eu³⁺ cryptate labeled anti-hu Fc donor and 20 μl of d2-labeled streptavidin acceptor were added to each well and incubated for 1 hour at room temperature. Fluorescence was measured at 620 and 665 nm with a delay of 300 μsec.
EC₅₀ values, i.e. the concentration of an antibody that yields a response halfway between the baseline and the maximum value within a specified time period, were computed for each antibody based upon their binding curves and are shown in Table 1 below. […] A humanized form of antibody Ab1 was produced and is identified by an appended “.H”, i.e., Ab1.H, and it also bound PACAP38 with high affinity.

human PACAP38 [9] = target: T3, human PACAP38; test: inhibition of 100 nM biotin-PACAP38 binding to PC-12 cells, TRF
Method: as §2, §3, §4

Binder | Kd (human PACAP27 [1]) | koff (human PACAP27 [1]) | kon (human PACAP27 [1]) | Kd (human VIP) | koff (human VIP) | Kd (human PACAP38 [2]) | koff (human PACAP38 [2]) | kon (human PACAP38 [2]) | IC50 (human PACAP38 [3]) | IC50, 1 nM PACAP38-induced human VPAC2-R mediated cAMP increase (human PACAP38 [4]) | IC50, 5 nM PACAP38-induced human VPAC1-R mediated cAMP increase (human PACAP38 [5]) | IC50, 0.1 nM PACAP27-induced PAC1-R mediated cAMP increase (human PACAP27 [6]) | IC50, 0.1 nM PACAP38-induced PAC1-R mediated cAMP increase (human PACAP38 [7]) | EC50 (human PACAP38 [8]) | kon (human VIP) | IC50 (human PACAP38 [9])
anti-PACAP antibody Ab3.H (antibody, human IgG1, kappa, N297A, V domains shown, humanized form of Ab3, full length) VH: EVQLVESGGGLVQPGGSLRLSCAASGFSFSSSDYMCWVRQAPGKGLEWIGCIDAGSSGDTYFASSAKGRFTISRDNSKNTVYLQMNSLRAEDTAVYFCARHLYGSITFAFGLWGQGTLVTVSS VL: AAQMTQSPSTLSASVGDRVTITCQASQSIGSDLAWYQQKPGKAPKLLIYDASTLASGVPSRFSGSGSGTEFTLTISSLQPDDFATYYCQGTYYSSGWYTAFGGGTKVEIKR | 1 nM | 0.00034 s⁻¹ | 330000 M⁻¹ s⁻¹ | 100000 µM | 0.1 s⁻¹ | 0.29 nM | 0.00014 s⁻¹ | 490000 M⁻¹ s⁻¹ | 0.0883 µM | 0.0642 µM | 0.00733 µM | 1.21 nM | 1.32 nM | – | – | –
anti-PACAP antibody Ab1 (antibody, human IgG1, kappa, N297A, V domains shown, full-length rabbit/human chimeric antibody) VH: QSVEESGGRLVTPGTPLTLTCTVSGFSLSSAVMNWVRQAPGKGLEWIGSIVASGTTYYASWANGRFTISKTSSTTMDLKMTSPTTEDTATYFCARGGGEFFIWGPGTLVTVSS VL: DPVMTQTPSSTSAAVGGTVTISCQSSESVYSNYLSWYQQKPGQPPNFLIYQASNLASGVPSRFKGSGSGTQFTLTITDLECDDAATYYCAGGYSENIVGFGGGTEVVVKR | ≤ 0.1 nM | ≤ 1e-05 s⁻¹ | 1e+06 M⁻¹ s⁻¹ | 0.099 µM | 0.025 s⁻¹ | ≤ 0.027 nM | ≤ 1e-05 s⁻¹ | 370000 M⁻¹ s⁻¹ | – | 0.000147 µM | 0.000665 µM | 0.0729 nM | 0.293 nM | 0.00043 µM | 250000 M⁻¹ s⁻¹ | 0.0127 µM
anti-PACAP antibody Ab2 (antibody, human IgG1, kappa, N297A, V domains shown, full-length rabbit/human chimeric antibody) VH: QSVEESGGRLVTPGTPLTLTCTVSGFSLSGAAMNWVRQAPGKGLEWIGVIGNSGSTYYASWAKGRFTISKTSSTTVDLKMTSPTTEDTATYFCARGGGEFFIWGQGTLVTVSS VL: AQVLTQTPSPVSAAVGGTVTINCQSSESVYKNNYLSWYQQKPGQPPKFLIYQASNLADGVPSRFKGSGSGTQFTLTISDLECDDAATYYCAGGYSTYMSGFGGGTEVVVKR | ≤ 0.012 nM | ≤ 1e-05 s⁻¹ | 830000 M⁻¹ s⁻¹ | 0.14 µM | 0.084 s⁻¹ | ≤ 0.044 nM | ≤ 1e-05 s⁻¹ | 230000 M⁻¹ s⁻¹ | – | 0.000174 µM | 0.000688 µM | 0.063 nM | 0.237 nM | 0.00035 µM | 580000 M⁻¹ s⁻¹ | 0.0266 µM
anti-PACAP antibody Ab4.H (antibody, human IgG1, kappa, N297A, V domains shown, humanized form of Ab4, full length) VH: EVQLVESGGGLVQPGGSLRLSCAASGFSLSSYDMSWVRQAPGKGLEWIGIINTNDDTWYASWVKGRFTISRDNSKNTLYLQMNSLRAEDTAVYYCARISDAYVFDYAYYFTLWGQGTLVTVSS VL: DIQMTQSPSTLSASVGDRVTITCLASQNIYNSLAWYQQKPGKAPKLLIYRASTLASGVPSRFSGSGSGTEFTLTISSLQPDDFATYYCQQGAGADNIGNPFGGGTKVEIKR | ≤ 0.031 nM | ≤ 1e-05 s⁻¹ | 330000 M⁻¹ s⁻¹ | 0.072 µM | 0.024 s⁻¹ | 0.1 nM | 3.2e-05 s⁻¹ | 310000 M⁻¹ s⁻¹ | 0.098 µM | 0.00449 µM | 0.0026 µM | 0.294 nM | 0.307 nM | – | 330000 M⁻¹ s⁻¹ | –

The next lines start with the values.

Kd (human PACAP27 [1]) | koff (human PACAP27 [1]) | kon (human PACAP27 [1]) | Kd (human VIP) | koff (human VIP) | Kd (human PACAP38 [2]) | koff (human PACAP38 [2]) | kon (human PACAP38 [2]) | IC50 (human PACAP38 [3]) | IC50, 1 nM PACAP38-induced human VPAC2-R mediated cAMP increase (human PACAP38 [4]) | IC50, 5 nM PACAP38-induced human VPAC1-R mediated cAMP increase (human PACAP38 [5]) | IC50, 0.1 nM PACAP27-induced PAC1-R mediated cAMP increase (human PACAP27 [6]) | IC50, 0.1 nM PACAP38-induced PAC1-R mediated cAMP increase (human PACAP38 [7]) | EC50 (human PACAP38 [8]) | kon (human VIP) | IC50 (human PACAP38 [9]) | Binder
0.21 nM | 8.2e-05 s⁻¹ | 390000 M⁻¹ s⁻¹ | 0.044 µM | 0.00014 s⁻¹ | 0.14 nM | 4.1e-05 s⁻¹ | 300000 M⁻¹ s⁻¹ | – | 0.000217 µM | 0.000797 µM | 0.38 nM | 0.0512 nM | 0.0005 µM | 3100 M⁻¹ s⁻¹ | 0.0078 µM | anti-PACAP antibody Ab6 (antibody, human IgG1, kappa, N297A, V domains shown, full-length rabbit/human chimeric antibody) VH: LEQSGGGAEGGLVKPGGSLELCCKASGFSLSSTYWMCWVRQAPGKGLEWIGCIYTGSGSTDYASWVNGQFTLSRDIDQSTGCLQLNSLTVADTAMYYCTKNFDLWGPGTLVTVSS VL: AQVLTQTPSSVSAAVGGTVTINCQSSPSVYSNNYLSWFQQKPGQPPKGLIADASTLASGVPSRFKGSGSGTQFTLTISGVQCDDAAAYYCLGYYDCGSTDCHAFGGGTEVVVKR
0.34 nM | 0.00032 s⁻¹ | 960000 M⁻¹ s⁻¹ | 100000 µM | 0.1 s⁻¹ | 0.14 nM | 0.00011 s⁻¹ | 820000 M⁻¹ s⁻¹ | – | 0.00696 µM | 0.00406 µM | 2.84 nM | 0.987 nM | 0.00023 µM | – | 0.0333 µM | anti-PACAP antibody Ab9 (antibody, human IgG1, kappa, N297A, V domains shown, full-length rabbit/human chimeric antibody) VH: EQSGGGAEGGLVKPGGSLKLSCKASGFTISRDYWICWVRQAPGKGLEWIGCISAGGGSTDYANWVNGRFTLSRDIDQSTGCLQLNSLTDADTAMYYCAGNLEIWGQGTLVTVSS VL: AQVLTQTPSSVSAAVGGTVTINCQSSPSIYSGAFLSWFQQKPGQPPKFLIYEASKLASGVPSRFSGSGSGTQFTLTISDVQCDDAATYYCLGFYDCSSVDCHAFGGGTEVVVKR
0.14 nM | 6e-05 s⁻¹ | 440000 M⁻¹ s⁻¹ | 0.21 µM | 0.1 s⁻¹ | ≤ 0.029 nM | ≤ 1e-05 s⁻¹ | 350000 M⁻¹ s⁻¹ | – | 0.000147 µM | 0.000481 µM | 0.049 nM | 0.0393 nM | 0.00048 µM | 480000 M⁻¹ s⁻¹ | 0.0203 µM | anti-PACAP antibody Ab8 (antibody, human IgG1, kappa, N297A, V domains shown, full-length rabbit/human chimeric antibody) VH: LEQSGGGAEGGLVKPGGSLELCCKASGFSLTTSHWMCWVRQAPGKGLNWIGCISAGSGDADYATWVDAQFTLSRDIDQNTGCLQLNSLTPADTAMYYCTINFELWGQGTLVTVSS VL: AQVLTQTPSSVSAAVGGTVTINCQSSPSVYSSYLSWFQQKPGQPPKFLIYEASKLASGVPSRFSGSGSGTQFTLTISGVQCSDAATYYCLGAYDCGRTDCHAFGGGTEVVVKR

From patent publication US20190233498A1 (H LUNDBECK A S, published 2019)
